Two molecules from US20200332005A1 (I MAB, published 2020) can be followed below.

Experiment [1] has as its target T1, recombinant human CD73 protein (human, UniProt P21589 27-547).
T1 sequence: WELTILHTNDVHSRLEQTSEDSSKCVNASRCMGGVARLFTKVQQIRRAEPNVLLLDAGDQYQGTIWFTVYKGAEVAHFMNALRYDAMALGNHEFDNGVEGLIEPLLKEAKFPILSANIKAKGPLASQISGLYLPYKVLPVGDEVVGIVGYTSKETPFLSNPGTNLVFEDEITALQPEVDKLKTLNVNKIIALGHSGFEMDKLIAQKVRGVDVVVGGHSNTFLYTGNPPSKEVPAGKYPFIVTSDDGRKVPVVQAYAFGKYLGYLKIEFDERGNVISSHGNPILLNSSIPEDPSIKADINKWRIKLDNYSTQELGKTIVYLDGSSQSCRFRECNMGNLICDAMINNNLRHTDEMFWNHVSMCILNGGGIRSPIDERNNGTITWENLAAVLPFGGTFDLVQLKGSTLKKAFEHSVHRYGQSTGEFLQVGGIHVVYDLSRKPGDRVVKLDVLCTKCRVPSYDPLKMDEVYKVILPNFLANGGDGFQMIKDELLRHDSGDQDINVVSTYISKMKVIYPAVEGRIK
Nature of the experiment: cell-based or functional assay.

Experiment [2] has as its target T2, human CD73 on the cell surface (human, UniProt P21589 27-549).
T2 sequence: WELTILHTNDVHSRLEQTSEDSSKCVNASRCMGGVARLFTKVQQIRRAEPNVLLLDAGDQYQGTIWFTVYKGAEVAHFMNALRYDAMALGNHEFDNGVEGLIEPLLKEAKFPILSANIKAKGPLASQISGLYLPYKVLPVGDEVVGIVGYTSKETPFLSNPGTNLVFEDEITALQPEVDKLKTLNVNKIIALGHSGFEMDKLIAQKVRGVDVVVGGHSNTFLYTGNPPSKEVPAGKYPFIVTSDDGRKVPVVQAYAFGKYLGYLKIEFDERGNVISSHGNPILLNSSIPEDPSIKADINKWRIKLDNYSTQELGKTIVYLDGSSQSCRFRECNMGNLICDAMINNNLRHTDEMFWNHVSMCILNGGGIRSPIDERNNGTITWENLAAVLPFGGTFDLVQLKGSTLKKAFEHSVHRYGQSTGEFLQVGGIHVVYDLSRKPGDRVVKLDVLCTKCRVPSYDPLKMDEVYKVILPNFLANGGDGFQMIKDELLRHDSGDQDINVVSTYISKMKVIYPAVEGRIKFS
The experiment can be described thus: cell-based or functional assay.

A further experiment concerns the target C-terminal of CD73. The experiment can be described thus: plate binding assay, axis Binding activity (OD450) against Ab (µg/ml); panel Binding to C-terminal of CD73.
Chain of C-terminal of CD73 (P21589 whole entry): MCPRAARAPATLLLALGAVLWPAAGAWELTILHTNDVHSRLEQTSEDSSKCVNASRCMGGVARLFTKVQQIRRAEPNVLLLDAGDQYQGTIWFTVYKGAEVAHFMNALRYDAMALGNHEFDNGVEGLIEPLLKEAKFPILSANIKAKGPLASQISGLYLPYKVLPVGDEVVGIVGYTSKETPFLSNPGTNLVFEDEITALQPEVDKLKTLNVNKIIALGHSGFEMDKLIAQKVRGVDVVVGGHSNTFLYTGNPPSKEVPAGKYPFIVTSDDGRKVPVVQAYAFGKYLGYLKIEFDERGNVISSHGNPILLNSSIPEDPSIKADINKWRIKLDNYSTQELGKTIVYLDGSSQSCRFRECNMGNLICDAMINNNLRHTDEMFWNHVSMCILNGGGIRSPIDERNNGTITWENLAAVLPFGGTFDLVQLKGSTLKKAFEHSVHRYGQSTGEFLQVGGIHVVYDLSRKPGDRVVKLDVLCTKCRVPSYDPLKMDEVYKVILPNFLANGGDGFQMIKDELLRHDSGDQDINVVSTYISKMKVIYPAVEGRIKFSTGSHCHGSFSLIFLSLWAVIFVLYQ
The target of experiment [3] is T1, recombinant human CD73 protein. The experiment can be described thus: cell-based or functional assay. This is another data set of the same source.
Experiment [4] deals with cyno CD73 (cyno). The experiment can be described thus: cell-based or functional assay.
The target of experiment [5] is T2, human CD73 on the cell surface. Nature of the experiment: flow cytometry on SK-OV-3 cells. As for the experimental part: Binding was measured using an FACSCanto (Becton-Dickinson), and the results are presented in FIG. 8 (see also the table below).
The target is the same in experiment [6]. The experiment can be described thus: flow cytometry on SK-OV-3 cells. An excerpt:
In the right panel, human ovarian carcinoma cell line (SK-OV-3) was stained with different concentrations of Hu101-28 and analyzed for surface binding by flow cytometry.
This is another data set of the same source.

Experiment [7] has as its target T1, recombinant human CD73 protein. Nature of the experiment: SPR, Biacore T200, antibody captured by anti-human Fc IgG, antigen as analyte, 1:1 model, 25 C. As for the experimental part: For the binding assay, the Biacore T200 system was used through human antibody capture approach. The anti-human Fc lgG were immobilized on CMS sensor chip according to the manufactory's instruction. The test antibody was injected and captured by the immobilized anti-human Fc lgG. And then serial concentrations of antigen was individually injected, and the binding profile was recorded for each concentration antigen analyte, respectively. The assay system was regenerated by injection of 10 mM Glycine-HCl pH 1.5 for 30 seconds. The running buffer was HBS-EP+(10 mM HEPES, pH 7.4, 150 mM NaCl, 3 mM EDTA and 0.05% P20). The assay temperature was 25° C., and the association and dissociation time were 180 and 600 seconds, respectively.

For experiment [8] the target is unchanged. The experiment can be described thus: plate binding assay read as OD 450 against Log (nM) of antibody; text: in vitro biochemical assay.
The target in experiment [9] is cyno CD73 (cyno). The experiment is described as above.
Experiment [10] has as its target T1, recombinant human CD73 protein. Nature of the experiment: cell-based or functional assay. This is another data set of the same source.
Experiment [11] concerns the target T2, human CD73 on the cell surface. The experiment can be described thus: cell-based or functional assay. This is another data set of the same source.
Experiment [12] deals with T1, recombinant human CD73 protein. Nature of the experiment: ELISA, recombinant human CD73 at 2 ug/ml.
In experiment [13] the target is T3, D399A.
T3 construct: also called CD73 variant D399A
T3 CD73 subunit: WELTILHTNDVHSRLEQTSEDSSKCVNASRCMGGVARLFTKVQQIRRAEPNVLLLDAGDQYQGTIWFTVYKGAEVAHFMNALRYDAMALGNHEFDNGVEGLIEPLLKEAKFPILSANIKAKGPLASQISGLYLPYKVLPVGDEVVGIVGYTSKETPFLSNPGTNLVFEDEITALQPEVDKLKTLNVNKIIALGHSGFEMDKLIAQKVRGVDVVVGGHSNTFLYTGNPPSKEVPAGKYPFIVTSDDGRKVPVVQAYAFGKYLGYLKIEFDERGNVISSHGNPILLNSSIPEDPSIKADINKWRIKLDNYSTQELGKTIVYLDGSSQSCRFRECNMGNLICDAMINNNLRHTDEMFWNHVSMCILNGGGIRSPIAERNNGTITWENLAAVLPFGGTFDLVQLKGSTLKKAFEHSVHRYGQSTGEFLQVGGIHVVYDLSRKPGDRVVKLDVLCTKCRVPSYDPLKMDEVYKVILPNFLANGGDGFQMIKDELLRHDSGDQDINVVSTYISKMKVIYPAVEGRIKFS
The experiment can be described thus: high-throughput flow cytometry on cells expressing the CD73 variant, in duplicate; mean (range). The method, then:
(§1) To identify the epitope of Hu101-28, a library of clones of single amino acid-mutated CD73 variants was made. Binding of Hu101-28 Fab to each variant in the library was determined, in duplicate, by high-throughput flow cytometry. For each CD73 variant, the mean binding value was plotted as a function of CD73 expression (represented by control reactivity) on chart and critical residues were identified from the chart. Critical residues for CD73 Fab binding (outlined in red) were identified as those whose mutations were negative for test Fab binding, but positive for the control MAbs. The mean binding reactivities (and ranges) are listed for the critical residues identified in the screens, and are shown in FIG. 23.

The target of experiment [14] is T4, Y345A.
T4 construct: also called CD73 variant Y345A
T4 CD73 subunit: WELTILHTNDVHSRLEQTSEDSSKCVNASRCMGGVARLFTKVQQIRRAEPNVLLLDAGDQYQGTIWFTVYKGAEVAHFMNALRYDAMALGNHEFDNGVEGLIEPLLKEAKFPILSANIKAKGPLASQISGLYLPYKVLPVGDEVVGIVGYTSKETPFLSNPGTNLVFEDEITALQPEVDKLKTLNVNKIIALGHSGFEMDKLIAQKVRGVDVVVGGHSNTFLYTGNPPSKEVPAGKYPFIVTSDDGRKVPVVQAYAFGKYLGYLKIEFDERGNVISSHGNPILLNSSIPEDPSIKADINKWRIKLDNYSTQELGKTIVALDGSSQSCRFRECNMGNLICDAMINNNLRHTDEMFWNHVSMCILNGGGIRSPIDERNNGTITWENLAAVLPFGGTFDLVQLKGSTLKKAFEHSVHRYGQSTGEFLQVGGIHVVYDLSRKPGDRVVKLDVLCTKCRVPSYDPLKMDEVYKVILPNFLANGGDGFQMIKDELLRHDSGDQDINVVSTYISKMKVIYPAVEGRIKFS
The description is as above. The method, then: as §1

Experiment [15] addresses T5, E400A.
T5 construct: also called CD73 variant E400A
T5 CD73 subunit: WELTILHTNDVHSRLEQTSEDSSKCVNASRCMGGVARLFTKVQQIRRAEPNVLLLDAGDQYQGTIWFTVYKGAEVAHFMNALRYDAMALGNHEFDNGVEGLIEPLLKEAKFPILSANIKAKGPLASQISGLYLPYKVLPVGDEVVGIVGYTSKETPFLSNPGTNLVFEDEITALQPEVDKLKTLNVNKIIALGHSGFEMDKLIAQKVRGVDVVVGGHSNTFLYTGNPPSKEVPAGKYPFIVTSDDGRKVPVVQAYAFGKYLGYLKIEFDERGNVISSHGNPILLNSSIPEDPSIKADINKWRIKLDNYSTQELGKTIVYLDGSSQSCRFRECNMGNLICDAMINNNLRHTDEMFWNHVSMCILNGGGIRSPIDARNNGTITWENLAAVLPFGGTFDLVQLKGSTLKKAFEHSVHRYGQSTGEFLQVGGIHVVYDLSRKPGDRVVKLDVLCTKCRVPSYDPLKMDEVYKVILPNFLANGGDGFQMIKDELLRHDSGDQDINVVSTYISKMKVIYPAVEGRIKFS
The experiment is described as above. The method, then: as §1

For experiment [16], the target named is T6, R401A.
T6 construct: also called CD73 variant R401A
T6 CD73 subunit: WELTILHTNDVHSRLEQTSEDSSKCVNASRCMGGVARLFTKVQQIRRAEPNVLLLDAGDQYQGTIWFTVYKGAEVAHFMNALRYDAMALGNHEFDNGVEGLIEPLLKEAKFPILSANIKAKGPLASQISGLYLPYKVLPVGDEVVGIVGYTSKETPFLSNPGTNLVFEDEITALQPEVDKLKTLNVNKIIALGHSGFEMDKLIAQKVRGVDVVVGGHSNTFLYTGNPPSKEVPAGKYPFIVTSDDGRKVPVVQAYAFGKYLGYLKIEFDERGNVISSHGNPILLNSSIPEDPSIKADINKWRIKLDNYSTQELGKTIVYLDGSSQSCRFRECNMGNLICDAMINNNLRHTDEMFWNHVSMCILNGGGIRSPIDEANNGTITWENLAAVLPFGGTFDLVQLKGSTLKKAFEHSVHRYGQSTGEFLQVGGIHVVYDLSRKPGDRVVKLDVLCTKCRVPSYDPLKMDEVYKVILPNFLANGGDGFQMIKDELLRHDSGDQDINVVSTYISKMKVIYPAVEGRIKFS
The experiment is described as above. As for the experimental part: as §1

Experiment [17] concerns the target T3, D399A. Nature of the experiment: high-throughput flow cytometry on cells expressing the CD73 variant. As for the experimental part: as §1
Experiment [18] concerns the target T4, Y345A. Described as above. The method, then: as §1
The target in experiment [19] is T5, E400A. The description is as above. As for the experimental part:
as §1

The target of experiment [20] is T6, R401A. Described as above. As for the experimental part:
as §1

Where two headings read alike, the source gives them in different places.

B1: Hu101-28 (antibody, V domains shown)
VH: EVQLQESGPGLVKPSETLSLTCAVSGYSITSGYYWNWIRQPPGKKLEWMGYINYGGSNGYNPSLKSRITISRDTSKNQFSLKLSSVTAADTAVYYCARDYDAYYEALDDWGQGTTVTVSS
VL: EIVLSQSPATLSLSPGERATLSCRASSRVNYMHWYQQKPGQSPRPWISATSNLASGVPARFSGSGSGTSYTLTISSLEPEDFAVYYCQQWSSNPPTFGGGTKVEIK
notes: also called humanized anti-CD73 antibody Hu101-28
Consider B1, for which the “IC50 (nM), inhibition of recombinant CD73 enzymatic activity” value in experiment [1] was determined as 9.35 nM. Further, the “IC50 (nM), inhibition of CD73 enzymatic activity on SK-OV-3 cells” value in experiment [2] was 2.52 nM. Also, the “EC50 (read off the curve)” value with C-terminal of CD73 is roughly 0.02 µg/mL. Further, the entries for the “IC50, inhibition of CD73 enzyme activity (% of residual enzyme activity)” value (in experiment [3]; in the experiment with cyno CD73 [4]) were 1.78 nM and 2.22 nM, respectively. In addition, the EC50 in [5] was determined as 1.35 nM; in experiment [6] it was 0.67 nM; in [8] it was 0.09 nM; with cyno CD73 [9], 0.44 nM; in [12], 0.0887 nM. The Kd in [7] was determined as 0.59 nM. Further, the koff in experiment [7] came out at 3.47e-05 s⁻¹. In addition, the kon in experiment [7] amounted to 58900 M⁻¹ s⁻¹. The “IC50, inhibition of recombinant human CD73 activity (CellTiter-Glo)” value in experiment [10] amounted to 2.84 nM. Also, the “IC50, inhibition of CD73 activity on MDA-MB-231 cells (CellTiter-Glo)” value in experiment [11] is 8.21 nM. Also, the “IC50, inhibition of CD73 activity on SK-OV-3 cells (CellTiter-Glo)” value in [11] is 2.52 nM.

B2: Hu101-28 Fab (Fab, V domains shown)
VH: EVQLQESGPGLVKPSETLSLTCAVSGYSITSGYYWNWIRQPPGKKLEWMGYINYGGSNGYNPSLKSRITISRDTSKNQFSLKLSSVTAADTAVYYCARDYDAYYEALDDWGQGTTVTVSS
VL: EIVLSQSPATLSLSPGERATLSCRASSRVNYMHWYQQKPGQSPRPWISATSNLASGVPARFSGSGSGTSYTLTISSLEPEDFAVYYCQQWSSNPPTFGGGTKVEIK
notes: also called test Fab; CD73 Fab
B2: the “Binding Reactivity (% WT)” value worked out at 1.8 % WT in the experiment with D399A [13], 2.7 % WT in the experiment with Y345A [14], 3.6 % WT in the experiment with E400A [15] and 1.1 % WT in the experiment with R401A [16]. For the same molecule, the binding result with D399A [17], with Y345A [18], with E400A [19] and with R401A [20] was “no binding” each time.
